Target: Fc-FGF21 from E. coli (UniProt Q9NSA1)
Assay: BLI

Kd: 10.1 nM
Substance: Human KLB (from UniProt Q86Z14 1-996) (receptor)
